Tested on: Escherichia coli TOP10
Assay: shrunken log2 fold change of peptide-encoding DNA abundance (4.5 h post-induction vs induction); higher = less antimicrobial activity (less host growth inhibition)
Settings: time post-induction: 4.5 h; library: site-saturation at positions 5, 18, 19, 20
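Note: peptides expressed intracellularly from a pBAD plasmid library in pooled LB shake-flask culture, induced with 0.3% L-arabinose, DNA abundance read by NGS, three biological replicates, DESeq2 with apeglm shrinkage.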

Sequence	shrunken log2 fold change
RRIRMRPPRLPRPRPRPKLAPRP	2.87
RRIRARPPRLPRPRPRPTLMPRP	0.768
RRIRYRPPRLPRPRPRPLNYPRP	-0.0845
RRIRPRPPRLPRPRPRPMMMPRP	-0.167
RRIRPRPPRLPRPRPRPFIFPRP	0.29
RRIRWRPPRLPRPRPRPALMPRP	0.159
RRIRYRPPRLPRPRPRPMHDPRP	-0.598
RRIRERPPRLPRPRPRPKCKPRP	-0.173
RRIRTRPPRLPRPRPRPQFPPRP	-0.0282
RRIRFRPPRLPRPRPRPCALPRP	-0.554
RRIRMRPPRLPRPRPRPDRFPRP	0.207
RRIRQRPPRLPRPRPRPDKTPRP	-0.00926
RRIRTRPPRLPRPRPRPQYMPRP	-1.01
RRIRDRPPRLPRPRPRPIDFPRP	0.132
RRIRCRPPRLPRPRPRPSCGPRP	-0.103
RRIRNRPPRLPRPRPRPSWCPRP	-0.0906
RRIRFRPPRLPRPRPRPRCSPRP	0.717
RRIRMRPPRLPRPRPRPCTQPRP	-0.111
RRIRARPPRLPRPRPRPDMMPRP	0.139
RRIRWRPPRLPRPRPRPTRLPRP	0.411
RRIRERPPRLPRPRPRPNQYPRP	-0.674
RRIRTRPPRLPRPRPRPKKWPRP	-0.0616
RRIRKRPPRLPRPRPRPTDAPRP	0.05
RRIRMRPPRLPRPRPRPHKGPRP	0.034
RRIRGRPPRLPRPRPRPTESPRP	0.803

Sequence	shrunken log2 fold change
RRIRIRPPRLPRPRPRPPVQPRP	-0.0716
RRIRDRPPRLPRPRPRPILDPRP	0.0609
RRIRDRPPRLPRPRPRPHSMPRP	-0.293
RRIRLRPPRLPRPRPRPAEEPRP	0.133
RRIRHRPPRLPRPRPRPGFMPRP	0.0294
RRIRWRPPRLPRPRPRPNAGPRP	-0.00207
RRIRVRPPRLPRPRPRPATNPRP	-0.301
RRIRARPPRLPRPRPRPNVHPRP	0.0927
RRIRCRPPRLPRPRPRPGLMPRP	-0.102
RRIRERPPRLPRPRPRPSQMPRP	0.0681
RRIRDRPPRLPRPRPRPPKDPRP	0.314
RRIRYRPPRLPRPRPRPKAYPRP	0.00787
RRIRGRPPRLPRPRPRPDVNPRP	0.245
RRIRSRPPRLPRPRPRPTTGPRP	0.0655
RRIRDRPPRLPRPRPRPPRNPRP	0.27
RRIRNRPPRLPRPRPRPNYQPRP	-0.599
RRIRLRPPRLPRPRPRPFGSPRP	-0.0744
RRIRCRPPRLPRPRPRPVQRPRP	0.123
RRIRHRPPRLPRPRPRPMIRPRP	-0.173
RRIRFRPPRLPRPRPRPNYPPRP	-0.268
RRIRDRPPRLPRPRPRPGQVPRP	0.203
RRIRLRPPRLPRPRPRPVYNPRP	0.41
RRIRARPPRLPRPRPRPHIEPRP	-0.0716
RRIRTRPPRLPRPRPRPKPPPRP	0.353
RRIRQRPPRLPRPRPRPMGDPRP	0.0563

Sequence	shrunken log2 fold change
RRIRKRPPRLPRPRPRPITAPRP	0.235
RRIRTRPPRLPRPRPRPYFPPRP	-0.995
RRIRMRPPRLPRPRPRPNTAPRP	0.0661
RRIRKRPPRLPRPRPRPNWQPRP	0.0483
RRIRGRPPRLPRPRPRPEPGPRP	1.33
RRIRNRPPRLPRPRPRPPARPRP	0.746
RRIRARPPRLPRPRPRPICCPRP	0.316
RRIRFRPPRLPRPRPRPLHHPRP	-0.434
RRIRGRPPRLPRPRPRPSMGPRP	0.34
RRIRRRPPRLPRPRPRPWLEPRP	0.0128
RRIRQRPPRLPRPRPRPREEPRP	-0.00407
RRIRCRPPRLPRPRPRPPLYPRP	0.429
RRIRGRPPRLPRPRPRPSNQPRP	0.0776
RRIRIRPPRLPRPRPRPGYRPRP	-0.217
RRIRRRPPRLPRPRPRPAIYPRP	-0.148
RRIRVRPPRLPRPRPRPAKSPRP	-0.112
RRIRTRPPRLPRPRPRPMLLPRP	-0.0757
RRIRLRPPRLPRPRPRPSDEPRP	-0.255
RRIRERPPRLPRPRPRPPIMPRP	-0.314
RRIRHRPPRLPRPRPRPQIWPRP	-0.327
RRIRLRPPRLPRPRPRPVVLPRP	-0.0303
RRIRKRPPRLPRPRPRPTACPRP	0.108
RRIRKRPPRLPRPRPRPECWPRP	0.744
RRIRQRPPRLPRPRPRPEIIPRP	0.0359
RRIRERPPRLPRPRPRPYNLPRP	-0.321

Sequence	shrunken log2 fold change
RRIRRRPPRLPRPRPRPKLPPRP	0.369
RRIRDRPPRLPRPRPRPFDPPRP	-0.119
RRIRDRPPRLPRPRPRPVLSPRP	-0.0284
RRIRHRPPRLPRPRPRPWQRPRP	-0.1
RRIRPRPPRLPRPRPRPLIEPRP	-0.0879
RRIRWRPPRLPRPRPRPGLSPRP	-0.0318
RRIRSRPPRLPRPRPRPLINPRP	-0.0856
RRIRDRPPRLPRPRPRPLKCPRP	0.055
RRIRNRPPRLPRPRPRPVMHPRP	0.077
RRIRQRPPRLPRPRPRPAHVPRP	-0.139
RRIRMRPPRLPRPRPRPRMAPRP	1.38
RRIRDRPPRLPRPRPRPHTWPRP	-0.491
RRIRNRPPRLPRPRPRPGFYPRP	0.00223
RRIRVRPPRLPRPRPRPQGPPRP	0.107
RRIRMRPPRLPRPRPRPNNCPRP	-0.167
RRIRVRPPRLPRPRPRPNIQPRP	-0.121
RRIRKRPPRLPRPRPRPQTIPRP	0.0582
RRIRHRPPRLPRPRPRPFDMPRP	-0.00783
RRIRLRPPRLPRPRPRPSTNPRP	-0.451
RRIRFRPPRLPRPRPRPMKGPRP	-0.0547
RRIRTRPPRLPRPRPRPRVFPRP	0.212
RRIRVRPPRLPRPRPRPRGVPRP	0.278
RRIRHRPPRLPRPRPRPWSGPRP	-0.17
RRIRPRPPRLPRPRPRPEWGPRP	0.42
RRIRYRPPRLPRPRPRPEENPRP	-0.0116

Sequence	shrunken log2 fold change
RRIRRRPPRLPRPRPRPHLGPRP	-0.044
RRIRIRPPRLPRPRPRPNTHPRP	-0.677
RRIRYRPPRLPRPRPRPLINPRP	-0.279
RRIRSRPPRLPRPRPRPVHSPRP	0.139
RRIRYRPPRLPRPRPRPQDRPRP	-0.00674
RRIRKRPPRLPRPRPRPIIGPRP	0.00654
RRIRKRPPRLPRPRPRPPEVPRP	0.741
RRIRLRPPRLPRPRPRPRFEPRP	0.529
RRIRHRPPRLPRPRPRPGWEPRP	0.274
RRIRLRPPRLPRPRPRPGAFPRP	-0.0131
RRIRSRPPRLPRPRPRPRKDPRP	0.271
RRIRMRPPRLPRPRPRPEAYPRP	0.036
RRIRFRPPRLPRPRPRPQLRPRP	0.0318
RRIRDRPPRLPRPRPRPTRLPRP	0.491
RRIRWRPPRLPRPRPRPIIWPRP	-0.269
RRIRERPPRLPRPRPRPWEEPRP	-0.0572
RRIRCRPPRLPRPRPRPSENPRP	-0.154
RRIRARPPRLPRPRPRPGEHPRP	0.351
RRIRVRPPRLPRPRPRPGVKPRP	0.303
RRIRIRPPRLPRPRPRPMNVPRP	-0.122
RRIRFRPPRLPRPRPRPAQWPRP	0.296
RRIRARPPRLPRPRPRPQTCPRP	0.246
RRIRKRPPRLPRPRPRPIHSPRP	-0.00784
RRIRARPPRLPRPRPRPAWFPRP	0.303
RRIRPRPPRLPRPRPRPMLKPRP	0.0171

From the supplement of paper PMC9112550, “Optimization of the antimicrobial peptide Bac7 by deep mutational scanning” (BMC Biology, 2022)
